Laboratory results taken from US11707511B2, “Vaccine compositions and methods of using the same” (The Board of Supervisors of Louisiana State University and …, priority 2017, dated 2023).
“Also recorded” adds a separate entry of the source.

Columns and labels:
[1] = test system: medically important Candida spp; assay: DC-based immunization with universal peptides, coverage of medically important Candida spp; assay type: in vivo; conditions: in words
Description: Novel universal peptides as described herein can be excellent peptide vaccines against C. ablicans infection.

[2] = Induction of specific anti-peptide antibody responses in immunized mice; assay type: in vivo; conditions: BALB/c mice; peptide-pulsed DC; data not shown
Description: (§1) To perform rapid throughput evaluation of peptide vaccine candidates, immunizations were done by use of the similar antigen-pulsed DC based vaccine strategy with modification by totally removing CFA from vaccine formula. Fba peptide was used as positive control.
The double chimeric peptide conjugate vaccines have been tested for their abilities to induce specific anti-peptide antibodies and protective immunity against the disease caused by C. albicans. […] The enhancement in vaccine efficacy was evidenced by both increased survival and reduced or non-detectable fungal burden (colony forming units, CFUs) in kidneys of animals.

C. albicans = assay: Active immunization with peptide-pulsed dendritic cells, disseminated candidiasis caused by C. albicans in mice; assay type: in vivo, Candida albicans
Experimental: (§2) Active Immunizations with peptide pulsed dendritic cells. […] It allows us to perform rapid throughput evaluation of candidate short peptides. When protective double universal peptide conjugate(s) become identified by this study, immunization approaches suitable for human use will be applied in further studies. All active vaccinations were conducted as previously described (6,7,9). DCs were pulsed in vitro with universal peptide as described before with minor modification by totally removing CFA for last booster (6). Briefly, DCs in culture were pulsed with the peptide antigen (1 μM) on day 6. On day 7, PGE2 (10^-7M) was added along with LPS (2 μg/ml, Sigma) for 24 h to induce DC maturation. On day 9, antigen-pulsed DCs were washed extensively and […] in 200 μl DPBS were given by intraperitoneal (i.p.) route as the priming dose to mice. The mice were boosted i.p. at day 14 and day 28 with fresh antigen-pulsed DCs without adjuvant.
Table 2 lists universal peptide vaccines that induced protection against disseminated candidiasis caused by C. albicans in mice. The universal peptide vaccines listed in Table 1 are expressed at high homology by all analyzed medically important Candida species in addition to C. albicans (see details at Table 2). By dendritic cell (DC) based immunization approach as described herein, each of the universal peptide vaccines was able to protect mice against disseminated candidiasis caused by C. albicans, with the survival rate 80-100% up to 80-120 days post challenge.
as §1

[3] = test system: C. tropicalis (ATCC 20336); assay: Peptide-vaccinated mice challenged with lethal dose of C. tropicalis; assay type: in vivo
Experimental: as §2
Peptide-vaccinated mice were challenged with lethal dose of live C. tropicalis cells (ATCC 20336; i.v. challenge dose: 1×10^6/mouse).

C. albicans 3153A = assay: Passive transfer of mAbs or mAb cocktails i.p. before lethal i.v. challenge, mouse model of human disseminated candidiasis; assay type: in vivo, Candida albicans; conditions: Table 14; for Protection of adsorbed mAb: mAb removed by absorption with Candida cells before transfer; for Protection / Protection (grade word): single mAb, C. albicans
Experimental: Passive transfer of MAbs by intraperitoneal (i.p.) route. The preventive effect of peptide-specific mAbs listed in Table 3 and Table 4 in naïve mice was examined by passive transfer experiments. […] For testing, mice received 0.5 ml of each mAb or 1 ml of two mAbs in combination (0.5 ml of each) intraperitoneally. […] The negative control materials tested in mice were single mAb or DPBS. Control mice received 0.5 ml of the DPBS diluents or single mAb treatment. For each condition, 6- to 8-week-old female BALB/c mice (NCI) were given 0.5 ml of test mAb, or 1 ml two mAb cocktails or control materials intraperitoneally, followed 4 h later by 0.1 ml intravenously of defined lethal dose of yeast cells per milliliter of DPBS. Mice were divided into groups with five mice each and three independent experiments were carried out. In some experiments, mice were given the same dose of mAbs or control materials on every other day post-challenge for two weeks, as compared to the protective efficacy of mAb in combinations. All mice were sacrificed on day 50. For animal groups that were challenged non-albicans candida species, determined optimal challenge doses were applied for each candida strain.
The hybridoma clones that produce the universal peptide specific mAbs listed above were generated from mice vaccinated with peptide-pulsed dendritic cell (DC) preparation as described previously (6). The isotype of mAb was determined with a Mouse Monoclonal Antibody Isotyping Kit (Pierce, USA). […] In detail, BALB/c mice were given an i.p dose of each mAb four hours before hematogenous challenged with a lethal dose of C. albicans3153A cells. […] Importantly, passive protection was prevented by removal of the mAbs by absorption with Candida cells before transfer, which provided strong additional evidence for the protection being due to the mAb.
The three cell wall proteins were selected because of expression during human candidiasis and cell wall association, and included fructose-bisphosphate aldolase (Fba); methyltetrahydropteroyltriglutamate-homocysteine methyltransferase (Met6); hyphal wall protein-1 (Hwp1). The hybridoma clones listed at Table 5, which produce the peptide specific mAbs, were generated from mice vaccinated with peptide-pulsed dendritic cell (DC) preparation as described previously (6). The isotype of mAb was determined with a Mouse Monoclonal Antibody Isotyping Kit (Pierce, USA). […] Importantly, passive protection was prevented by removal of the mAbs by absorption with Candida cells before transfer, which provided strong additional evidence for the protection being due to the mAb).
The preventive effect of each universal peptide-specific mAb was examined by passive transfer experiments. […] For testing, 5 mice of each tested group received 0.5 ml of each mAb intraperitoneally. The negative control materials tested in mice were mAbs absorbed with C. albicans yeast cells (3153A) and DPBS. Control mice received 0.5 ml of the DPBS diluents or adsorbed mAb solution. For each condition, 6- to 8-week-old female BALB/c mice (NCI) were given 0.5 ml of test mAb, or control materials intraperitoneally, followed 4 h later by 0.1 ml intravenously of a suspension containing lethal dose of Candida cells per milliliter of DPBS. Mice were divided into groups with five mice each and three independent experiments were carried out. We have developed neutropenic murine models of disseminated infection by C. glabrata, C. tropicalis and C. parapsilosis. To induce neutropenia, naïve mice received a 200 mg/kg dose of cyclophosphamide (CY) by i.p. on day −3. Prolonged neutropenia were maintained for 30-50 days by giving each animal a 150 mg/kg dose of CY by i.p. every 10 days after infection.

C. auris AR-0386 = assay: Passive transfer of mAbs or two mAbs in combination in A/J mouse model of invasive C. auris infection; assay type: in vivo, Candida auris
Experimental: A. Complement protein C5-defecient A/J mice were treated with one of the five mAb or with DPBS as a vehicle control. The following day, mice were challenged with 1×10^8 C. auris cells/100 ul DPBS dose per mouse. […] B. Fungal burdens in the kidneys (top), heard (center), and brain (bottom).
Identified protective mAbs were obtained by use of standard hybridoma technique and purified by use of protein A/G. A/J mice were given an i.p. dose of either single mAb or two mAbs in combination 24 hours before hematogensous challenge with a lethal dose (2×108) of C. auris AR-0386 live cells. Mice received either 9G2F5 alone or 6H1G8 alone or 9F2G5 and 3H7E3 in combination had 40% survival rate respectively, with prolonged survival as compared to control animals that received DPBS buffer control.
Evaluation and validation of a panel of peptide-specific monoclonal antibodies (mAbs) as a passive immunization strategy protect against invasive C. auris infection in established A/J mouse model of human disease.
The monoclonal antibodies used in this experiment were: • 6H1G8 (IgG2b), α-Hwp1 (Hyphal wall protein) • 3E2G2 (IgG2b), α-Fba (Fructose bisphosphate aldolase) • 10E7E2 (IgG1), α-GPV-P3 (General peptide vaccine 3 from Phosphoglycerate kinase) • 9F2G5 (IgG2a), α-Pgk1 (Phosphoglycerate kinase) • 3H7E3 (IgG1), α-Met6 (Methyltetrahydropteroyltriglutamate)

Molecule: AILGGSKVSDKI (CAILGGSKVSDKI) [GPV-P1]
- coverage against medically important Candida spp [1]: able to provide broad coverage

Molecule: IVIIGGGDTATVAKK (CIVIIGGGDTATVAKK; (1)..(1) May or may not be present) [GPV-P3]
- coverage against medically important Candida spp [1]: able to provide broad coverage

Molecule: TTTIGSFPQTKDIR (CTTTIGSFPQTKDIR; (1)..(1) May or may not be present) [GPV-M2]
- coverage against medically important Candida spp [1]: able to provide broad coverage

Molecule: FWVNPDCGLKTR (CFWVNPDCGLKTR; (1)..(1) May or may not be present) [GPV-M1]
- coverage against medically important Candida spp [1]: able to provide broad coverage

Molecule: SSSTVVAAL [Fba4]
- specific antibody responses [2]: able to induce specific antibody responses

Molecule: PAINVTSSSTVVAALEAA [FbaU2]
- specific antibody responses [2]: able to induce specific antibody responses

Molecule: FAIPAINVTSSSTVVAALE [Fba3]
- protection against disseminated candidiasis caused by C. albicans (C. albicans; FIG. 2, antigen-pulsed DC vaccine without CFA): good protective responses
- CFUs in kidneys as compared to controls (C. albicans; FIG. 2 B and D): reduced or non-detectable CFUs
- survival ([3]; FIG. 3A, i.v. challenge 1×10^6/mouse, up to 80 days): 80%
- live fungal cells (CFU) in kidneys as compared to controls ([3]; FIG. 3B, p<0.001): significantly reduced live fungal cells
- specific antibody responses [2]: able to induce specific antibody responses

B1: 2B10C1: IgG1 mAb of hybridoma 2B10C1, specific for Met6 peptide; VH SEQ ID NO: 60, VL SEQ ID NO: 62 (antibody, V domains shown)
VH: MGWSYIILFLLATATRVHSQVQLQQPGAEVVRPGASVKVSCKASGYTVSSYWMSWVKQRPEQGLEWIGRIDPYDSETHYNQKFKDKAILTVDKSSSTAYMQLSSLTSEDSAVYYCARTAASFDYWGQGTTLTVSS
VL: MKLPVRLLVLMFWIPASSSDVVMTQTPLSLPVSLGDQASISCRSSQSLVHSNGNSYLHWYLQKPGQSPKLLIYKVSNRFSGVPDRFSGSGSGTDFTLNISRVEAEDLGVYFCSQSTHVPFTFGSGTKLEIK
- Protection of adsorbed mAb (C. albicans 3153A): None
- Protection (C. albicans 3153A): (80-100%)
- Protection (grade word) (C. albicans 3153A): High
- Protection against C. auris (C. auris AR-0386; Table 19, A/J strain mice): 60-90%
- Protection against C. auris (grade word) (C. auris AR-0386; Table 19, A/J strain mice): High

B2: 6H1G8: IgG2b mAb of hybridoma 6H1G8, specific for Hwp1 peptide (antibody)
heavy: EVQLQQSGPELVKPGASVKISCKASGYSITGYYMHWVKQSHVKSLEWIGRINPYTGATSYTQNFKDKASLTVDKSSSTAYMELLSLKSEDSAVYYCAKGGGRSSYWYFDVWGAGTAVTVSSAKTTPPSVYPLAPGCGDTTGSSVTLGCLVKGYFPESVTVTWNSGSLSSSVHTFPALLQSGLYTMSSSVTVPSSTWPSQTVTCSVAHPASSTTVDKKLEPSGPISTINPCPPCKECHKCPAPNLEGGPSVFIFPPNIKDVLMISLTPKVTCVVVDVSEDDPDVQISWFVNNVEVHTAQTQTHREDYNSTIRVVSTLPIQHQDWMSGKEFKCKVNNKDLPSPIERTISKIKGLVRAPQVYILPPPAEQLSRKDVSLTCLVVGFNPGDISVEWTSNGHTEENYKDTAPVLDSDGSYFIYSKLNMKTSKWEKTDSFSCNVRHEGLKNYYLKKTISRSPGK
light: DIQMTQTTSSLSASLGDRVTISCSASQAISNYLNWYQQKPDGTIKLLIYYTSSLHSGVPSRFSGSGSGTDYSLTISNLEPEDIATYYCQQYSKLPWTFGGGTKLEIKRADAAPTVSIFPPSSEQLTSGGASVVCFLNNFYPKDINVKWKIDGSERQNGVLNSWTDQDSKDSTYSMSSTLTLTKDEYERHNSYTCEATHKTSTSPIVKSFNRNEC
- Protection of adsorbed mAb (C. albicans 3153A): None
- Protection (C. albicans 3153A): (70-80%)
- Protection (grade word) (C. albicans 3153A): High
- fungal burdens in targeted organs (C. auris AR-0386; A/J mouse model, in words): lowest fungal burdens in all organs; also recorded: able to almost clear fungal burden
- protection against C. auris invasive infection (C. auris AR-0386; A/J mouse model, in words): protect against C. auris invasive infection; also recorded: best protection
- survival (C. auris AR-0386; FIG. 15A, A/J mice, 1×10^8 C. auris cells, experiment terminated 40 days post challenge): 50%
- fungal burden in the kidneys (C. auris AR-0386; FIG. 15B, one treated mouse): Non-detectible levels of fungal burden
- fungal burden in the heart and brain (C. auris AR-0386; FIG. 15B, several mice): non-detectible levels of fungal burden
- survival rate (C. auris AR-0386; FIG. 16, A/J mice, mAb(s) i.p. 24 hours before lethal dose (2×108) of C. auris AR-0386): 40%
